{"source": "patent US20160193316A1", "about": "(priority 1994, published 2016)", "key": {"[1]": {"biological_target": "T1, DRB1*1201 (DR5w12) (Homo sapiens, UniProt P01903+P01911, A100R/A169T/D57E/D86V/F55L/H45Y/K41T/L162R/M171V/P40S/Q125H/Q178H/Q39Y/Q99D/R42G/S66L/T262R/V114A/V67L/W38E/Y59H/Y61H/Y89S)", "T1 construct": "endogenous in cells; host or cells: Herluf", "assay": "HLA class II peptide binding assay", "conditions": "Table XIXb; DR5w12"}, "[2]": {"biological_target": "T2, DRB1*0802 (DR8w2) (Homo sapiens, UniProt P01903+P01911, A100R/A103L/A169T/F76Y/H45Y/I96F/K41T/L162R/M171V/P40S/Q125H/Q178H/Q39Y/Q99D/R218S/R42G/S66Y/V115G/W38E)", "T2 construct": "endogenous in cells; host or cells: OLL", "assay": "biochemical", "format": "binding"}, "[3]": {"biological_target": "T3, DRB4*0101 (DRw53) (Homo sapiens, UniProt P01903+P13762, G164S)", "T3 construct": "expressed in transfected cells; host or cells: L257.6 (fibroblasts)", "assay": "HLA class II peptide binding assay (pH 5.0)", "conditions": "Table XIXb; DRw53"}, "[4]": {"biological_target": "T4, DRB1*0401 (DR4w4) (Homo sapiens, UniProt P01903+P01911, A100K/A169T/F76Y/I96L/K127E/L162R/M171V/N62H/P40V/Q125Y/R42H/S133A/S149N/S66Y/V115G/V209L/W38E)", "T4 construct": "endogenous in cells; host or cells: Preiss", "T4 sequence (P01903 26-254 partner, other chains not shown)": "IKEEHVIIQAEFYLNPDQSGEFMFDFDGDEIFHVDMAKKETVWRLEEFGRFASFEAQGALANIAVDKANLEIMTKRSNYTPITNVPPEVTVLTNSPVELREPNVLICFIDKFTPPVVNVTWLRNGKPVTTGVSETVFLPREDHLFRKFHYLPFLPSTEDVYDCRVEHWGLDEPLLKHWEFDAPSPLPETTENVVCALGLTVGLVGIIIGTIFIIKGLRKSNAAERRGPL", "assay": "HLA class II peptide binding assay", "conditions": "Table XIXb; DR4w4"}, "[5]": {"biological_target": "T5, DRB1*0101 (DR1) (Homo sapiens, UniProt P01903+P01911, A100R/D57E/F55L/F60I/F76Y/I96L/L162R/M171V/P40L/Q125E/R42F/V115G/Y59C)", "T5 construct": "endogenous in cells; host or cells: LG2", "T5 sequence (P01903 26-254 partner, other chains not shown)": "as above", "assay": "HLA class II peptide binding assay", "conditions": "Table XIXb, Malaria Super Motif Peptides With Binding Data; DR1"}, "[6]": {"biological_target": "T6, DRB1*1101 (DR5w11) (Homo sapiens, UniProt P01903+P01911, A100R/A169T/A87E/I96F/K41T/L162R/M171V/P40S/Q125H/Q178H/Q39Y/Q99D/R42S/S66Y/T262R/V115G/W38E)", "T6 construct": "endogenous in cells; host or cells: Sweig", "T6 sequence (P01903 26-254, other chains not shown)": "as the sequence (P01903 26-254 partner, other chains not shown) above", "assay": "biochemical", "format": "binding"}, "[7]": {"biological_target": "T7, DRB5*0101 (DR2w2β2) (Homo sapiens, UniProt P01903+Q30154)", "T7 construct": "expressed in transfected cells; host or cells: L416.3 (fibroblasts) or GM3107", "format": "binding"}, "[8]": {"biological_target": "T8, DRB1*0701 (DR7) (Homo sapiens, UniProt P01903+P01911, A100R/A102G/A103Q/D57E/D86V/E43K/F76Y/K127E/L162R/M171V/P40G/Q125H/Q99D/R33Q/R42Y/R54Q/S133A/S66F/T210M/V115G/Y107V/Y59L/Y89S)", "T8 construct": "endogenous in cells; host or cells: Pitout", "assay": "biochemical", "format": "binding"}, "[9]": {"biological_target": "T9, DRB1*0405 (DR4w15) (Homo sapiens, UniProt P01903+P01911, A100R/A169T/D86S/F76Y/I96L/K127E/L162R/M171V/N62H/P40V/Q125Y/R42H/S133A/S149N/S66Y/V115G/V209L/W38E)", "T9 construct": "endogenous in cells; host or cells: KT3", "assay": "HLA class II peptide binding assay", "conditions": "Table XIXb; DR4w15"}, "[10]": {"biological_target": "HLA-A*1101 (Homo sapiens, UniProt P04439, A114D/D185E/E176A/F33Y/L180Q/S129P/T187R)", "assay": "HLA class I peptide binding assay", "conditions": "Table XVII"}, "[11]": {"biological_target": "T10, DRB1*0301 (DR3) (Homo sapiens, UniProt P01903+P01911, A100K/A102G/A103R/A169T/F55Y/I96L/K41T/L162R/M171V/P40S/Q125H/Q178H/Q39Y/R42S/S66N/T106N/T262R/W38E/Y61H)", "T10 construct": "endogenous in cells; host or cells: MAT", "assay": "HLA class II peptide binding assay (pH 4.5)"}, "[12]": {"biological_target": "T11, HLA-A*0301 (Homo sapiens, UniProt P04439)", "T11 construct": "endogenous in cells; host or cells: GM3107", "assay": "HLA class I peptide binding assay", "conditions": "for A*0301 (binding information): Malaria A3 motif peptides, Table XVI; for A*301 (binding data): Malaria A03 supermotif peptides, binding value, no unit given"}, "[13]": {"conditions": "malaria A11 motif peptides, binding value unit not given"}, "[14]": {"conditions": "Malaria A11 motif peptides, HLA-A*1101 binding value, unit not given"}, "[15]": {"conditions": "Malaria A11 motif peptides, binding value for HLA-A*1101, unit not given"}, "[16]": {"conditions": "binding value to HLA-A*0301, unit not given"}}, "data": [{"substance": "VNDFQISKY", "values": [{"measurement": "DR5w12 binding data", "setting": "[1]", "result": 0.0001}, {"measurement": "DR8w2 binding data", "setting": "[2]", "result": -0.0003}, {"measurement": "DRw53 binding data", "setting": "[3]", "result": -0.0005}, {"measurement": "DR4w4 binding data", "setting": "[4]", "result": -0.0007}, {"measurement": "DR1 binding data", "setting": "[5]", "result": 0.0001}, {"measurement": "DR5w11 binding data", "setting": "[6]", "result": -0.0002}, {"measurement": "DR2w2β2 binding data", "setting": "[7]", "result": -0.0005}, {"measurement": "DR7 binding data", "setting": "[8]", "result": -0.0003}, {"measurement": "DR4w15 binding data", "setting": "[9]", "result": -0.0014}]}, {"substance": "TCGKGIRSRK", "values": [{"measurement": "A*1101 binding information", "setting": "[10]; [13]", "result": 0.0002}]}, {"substance": "VLYNTEXGRH", "values": [{"measurement": "A*1101 binding information", "setting": "[10]; [14]", "result": 0.0002}]}, {"substance": "IFLKENIQNK", "values": [{"measurement": "A*1101 binding information", "setting": "[10]; [15]", "result": 0.0002}]}, {"substance": "SVTCGKOTFt (SVTCGKGTR)", "values": [{"measurement": "A*1101 binding information", "setting": "[10]; [13]", "result": 0.0009}]}, {"substance": "YLLMDCSGS", "values": [{"measurement": "DR5w12 binding data", "setting": "[1]", "result": 0.0001}, {"measurement": "DR8w2 binding data", "setting": "[2]", "result": 0.0007}, {"measurement": "DRw53 binding data", "setting": "[3]", "result": -0.0010}, {"measurement": "DR4w4 binding data", "setting": "[4]", "result": 0.0150}, {"measurement": "DR1 binding data", "setting": "[5]", "result": 0.0015}, {"measurement": "DR5w11 binding data", "setting": "[6]", "result": -0.0004}, {"measurement": "DR2w2β2 binding data", "setting": "[7]", "result": 0.0096}, {"measurement": "DR7 binding data", "setting": "[8]", "result": 0.0046}, {"measurement": "DR4w15 binding data", "setting": "[9]", "result": -0.0014}]}, {"substance": "IQNHTLETV", "values": [{"measurement": "DR5w12 binding data", "setting": "[1]", "result": 0.0001}, {"measurement": "DR8w2 binding data", "setting": "[2]", "result": -0.0003}, {"measurement": "DR3 binding data", "setting": "[11]; Table XIXb, DR3", "result": -0.0041}, {"measurement": "DR4w4 binding data", "setting": "[4]", "result": -0.0007}, {"measurement": "DR1 binding data", "setting": "[5]", "result": 0.0001}, {"measurement": "DR5w11 binding data", "setting": "[6]", "result": -0.0002}, {"measurement": "DR2w2β2 binding data", "setting": "[7]", "result": -0.0005}, {"measurement": "DR7 binding data", "setting": "[8]", "result": -0.0003}, {"measurement": "DR4w15 binding data", "setting": "[9]", "result": -0.0014}]}, {"substance": "CSVTCGKGTR", "values": [{"measurement": "A*0301 (binding information)", "setting": "[12]; [16]", "result": 0.0002}, {"measurement": "A*301 (binding data)", "setting": "[12]", "result": 0.0002}, {"measurement": "A*1101 binding information", "setting": "[10]; [13]", "result": 0.0002}]}, {"substance": "QCEEERCPPK", "values": [{"measurement": "A*0301 (binding information)", "setting": "[12]; [16]", "result": 0.0004}, {"measurement": "A*1101 binding information", "setting": "[10]; [13]", "result": 0.0002}]}, {"substance": "WSPCSVTCGK", "values": [{"measurement": "A*1101 binding information", "setting": "[10]; [13]", "result": 0.0002}]}, {"substance": "EMADCTNK", "values": [{"measurement": "A*1101 binding information", "setting": "[10]; [14]", "result": 0.0002}]}, {"substance": "HORNNENRSY", "values": [{"measurement": "A*1101 binding information", "setting": "[10]; [13]", "result": 0.0002}]}, {"substance": "LTDGIPDSI", "values": [{"measurement": "DR5w12 binding data", "setting": "[1]", "result": 0.0001}, {"measurement": "DR8w2 binding data", "setting": "[2]", "result": -0.0003}, {"measurement": "DRw53 binding data", "setting": "[3]", "result": 0.0114}, {"measurement": "DR4w4 binding data", "setting": "[4]", "result": 0.1200}, {"measurement": "DR1 binding data", "setting": "[5]", "result": 0.0001}, {"measurement": "DR5w11 binding data", "setting": "[6]", "result": -0.0004}, {"measurement": "DR2w2β2 binding data", "setting": "[7]", "result": -0.0006}, {"measurement": "DR7 binding data", "setting": "[8]", "result": -0.0003}, {"measurement": "DR4w15 binding data", "setting": "[9]", "result": -0.0014}]}, {"substance": "LERTKASKE", "values": [{"measurement": "DR8w2 binding data", "setting": "[2]", "result": -0.0003}, {"measurement": "DRw53 binding data", "setting": "[3]", "result": -0.0005}, {"measurement": "DR7 binding data", "setting": "[8]", "result": 0.0010}]}, {"substance": "VDELSEDTK", "values": [{"measurement": "A*1101 binding information", "setting": "[10]; [13]", "result": 0.0002}]}, {"substance": "ESITINVEGR", "values": [{"measurement": "A*1101 binding information", "setting": "[10]; [15]", "result": 0.0002}]}, {"substance": "DGNNEDNEX", "values": [{"measurement": "A*1101 binding information", "setting": "[10]; [14]", "result": 0.0002}]}, {"substance": "GLVLYNIEK", "values": [{"measurement": "A*1101 binding information", "setting": "[10]; [14]", "result": 0.0055}]}, {"substance": "FLKENKLNK", "values": [{"measurement": "A*301 (binding data)", "setting": "[12]", "result": 0.0260}, {"measurement": "A*0301 (binding information)", "setting": "[12]; HLA-A*0301 binding value, unit not given", "result": 0.0260}, {"measurement": "DR3 binding information", "setting": "[11]; Malaria DR3b motif peptides, unit not given", "result": 0.0950}, {"measurement": "A*1101 binding information", "setting": "[10]; [15]", "result": 0.0005}]}]}
